In patent publication US20210388087A1 one finds fold change of affinity data, which are given here for 20 molecules.

First the molecules themselves.
B1: H183/L072 VH W33K (antibody, name in Kabat numbering, V domains shown)
VH: QVQLVESGGGLVQPGRSLRLSCAASGFTFSNAKMHWVRQAPGKGLEWVAQIKDKGNAYAAYYAPSVKGRFTISRDDSKNSIYLQMNSLKTEDTAVYYCHYVHYASASTVLPAFGVDAWGQGTTVTVSS
VL: DIVMTQSPLSLPVTPGEPASISCQASQELVHMNRNTYLHWYQQKPGQAPRLLIYKVSNRFPGVPDRFSGSGSGTDFTLKISRVEAEDVGVYYCAQGTSVPFTFGQGTKLEIK
B2: H183/L072 VH F29R (antibody, name in Kabat numbering, V domains shown)
VH: QVQLVESGGGLVQPGRSLRLSCAASGFTRSNAWMHWVRQAPGKGLEWVAQIKDKGNAYAAYYAPSVKGRFTISRDDSKNSIYLQMNSLKTEDTAVYYCHYVHYASASTVLPAFGVDAWGQGTTVTVSS
VL: DIVMTQSPLSLPVTPGEPASISCQASQELVHMNRNTYLHWYQQKPGQAPRLLIYKVSNRFPGVPDRFSGSGSGTDFTLKISRVEAEDVGVYYCAQGTSVPFTFGQGTKLEIK
B3: H183/L072 VH W33F (antibody, name in Kabat numbering, V domains shown)
VH: QVQLVESGGGLVQPGRSLRLSCAASGFTFSNAFMHWVRQAPGKGLEWVAQIKDKGNAYAAYYAPSVKGRFTISRDDSKNSIYLQMNSLKTEDTAVYYCHYVHYASASTVLPAFGVDAWGQGTTVTVSS
VL: DIVMTQSPLSLPVTPGEPASISCQASQELVHMNRNTYLHWYQQKPGQAPRLLIYKVSNRFPGVPDRFSGSGSGTDFTLKISRVEAEDVGVYYCAQGTSVPFTFGQGTKLEIK
B4: H183/L072 VH W33R (antibody, name in Kabat numbering, V domains shown)
VH: QVQLVESGGGLVQPGRSLRLSCAASGFTFSNARMHWVRQAPGKGLEWVAQIKDKGNAYAAYYAPSVKGRFTISRDDSKNSIYLQMNSLKTEDTAVYYCHYVHYASASTVLPAFGVDAWGQGTTVTVSS
VL: DIVMTQSPLSLPVTPGEPASISCQASQELVHMNRNTYLHWYQQKPGQAPRLLIYKVSNRFPGVPDRFSGSGSGTDFTLKISRVEAEDVGVYYCAQGTSVPFTFGQGTKLEIK
B5: H183/L072 VH Y55R (antibody, name in Kabat numbering, V domains shown)
VH: QVQLVESGGGLVQPGRSLRLSCAASGFTFSNAWMHWVRQAPGKGLEWVAQIKDKGNARAAYYAPSVKGRFTISRDDSKNSIYLQMNSLKTEDTAVYYCHYVHYASASTVLPAFGVDAWGQGTTVTVSS
VL: DIVMTQSPLSLPVTPGEPASISCQASQELVHMNRNTYLHWYQQKPGQAPRLLIYKVSNRFPGVPDRFSGSGSGTDFTLKISRVEAEDVGVYYCAQGTSVPFTFGQGTKLEIK
B6: H183/L072 VH I51R (antibody, name in Kabat numbering, V domains shown)
VH: QVQLVESGGGLVQPGRSLRLSCAASGFTFSNAWMHWVRQAPGKGLEWVAQRKDKGNAYAAYYAPSVKGRFTISRDDSKNSIYLQMNSLKTEDTAVYYCHYVHYASASTVLPAFGVDAWGQGTTVTVSS
VL: DIVMTQSPLSLPVTPGEPASISCQASQELVHMNRNTYLHWYQQKPGQAPRLLIYKVSNRFPGVPDRFSGSGSGTDFTLKISRVEAEDVGVYYCAQGTSVPFTFGQGTKLEIK
B7: H183/L072 VH D52aF (antibody, name in Kabat numbering, V domains shown)
VH: QVQLVESGGGLVQPGRSLRLSCAASGFTFSNAWMHWVRQAPGKGLEWVAQIKFKGNAYAAYYAPSVKGRFTISRDDSKNSIYLQMNSLKTEDTAVYYCHYVHYASASTVLPAFGVDAWGQGTTVTVSS
VL: DIVMTQSPLSLPVTPGEPASISCQASQELVHMNRNTYLHWYQQKPGQAPRLLIYKVSNRFPGVPDRFSGSGSGTDFTLKISRVEAEDVGVYYCAQGTSVPFTFGQGTKLEIK
B8: H183/L072 VH N53F (antibody, name in Kabat numbering, V domains shown)
VH: QVQLVESGGGLVQPGRSLRLSCAASGFTFSNAWMHWVRQAPGKGLEWVAQIKDKGFAYAAYYAPSVKGRFTISRDDSKNSIYLQMNSLKTEDTAVYYCHYVHYASASTVLPAFGVDAWGQGTTVTVSS
VL: DIVMTQSPLSLPVTPGEPASISCQASQELVHMNRNTYLHWYQQKPGQAPRLLIYKVSNRFPGVPDRFSGSGSGTDFTLKISRVEAEDVGVYYCAQGTSVPFTFGQGTKLEIK
B9: H183/L072 VH D52aR (antibody, name in Kabat numbering, V domains shown)
VH: QVQLVESGGGLVQPGRSLRLSCAASGFTFSNAWMHWVRQAPGKGLEWVAQIKRKGNAYAAYYAPSVKGRFTISRDDSKNSIYLQMNSLKTEDTAVYYCHYVHYASASTVLPAFGVDAWGQGTTVTVSS
VL: DIVMTQSPLSLPVTPGEPASISCQASQELVHMNRNTYLHWYQQKPGQAPRLLIYKVSNRFPGVPDRFSGSGSGTDFTLKISRVEAEDVGVYYCAQGTSVPFTFGQGTKLEIK
B10: H183/L072 VH Q50R (antibody, name in Kabat numbering, V domains shown)
VH: QVQLVESGGGLVQPGRSLRLSCAASGFTFSNAWMHWVRQAPGKGLEWVARIKDKGNAYAAYYAPSVKGRFTISRDDSKNSIYLQMNSLKTEDTAVYYCHYVHYASASTVLPAFGVDAWGQGTTVTVSS
VL: DIVMTQSPLSLPVTPGEPASISCQASQELVHMNRNTYLHWYQQKPGQAPRLLIYKVSNRFPGVPDRFSGSGSGTDFTLKISRVEAEDVGVYYCAQGTSVPFTFGQGTKLEIK
B11: H183/L072 VH N53K (antibody, name in Kabat numbering, V domains shown)
VH: QVQLVESGGGLVQPGRSLRLSCAASGFTFSNAWMHWVRQAPGKGLEWVAQIKDKGKAYAAYYAPSVKGRFTISRDDSKNSIYLQMNSLKTEDTAVYYCHYVHYASASTVLPAFGVDAWGQGTTVTVSS
VL: DIVMTQSPLSLPVTPGEPASISCQASQELVHMNRNTYLHWYQQKPGQAPRLLIYKVSNRFPGVPDRFSGSGSGTDFTLKISRVEAEDVGVYYCAQGTSVPFTFGQGTKLEIK
B12: H183/L072 VH D52aK (antibody, name in Kabat numbering, V domains shown)
VH: QVQLVESGGGLVQPGRSLRLSCAASGFTFSNAWMHWVRQAPGKGLEWVAQIKKKGNAYAAYYAPSVKGRFTISRDDSKNSIYLQMNSLKTEDTAVYYCHYVHYASASTVLPAFGVDAWGQGTTVTVSS
VL: DIVMTQSPLSLPVTPGEPASISCQASQELVHMNRNTYLHWYQQKPGQAPRLLIYKVSNRFPGVPDRFSGSGSGTDFTLKISRVEAEDVGVYYCAQGTSVPFTFGQGTKLEIK
B13: H183/L072 VH I51F (antibody, name in Kabat numbering, V domains shown)
VH: QVQLVESGGGLVQPGRSLRLSCAASGFTFSNAWMHWVRQAPGKGLEWVAQFKDKGNAYAAYYAPSVKGRFTISRDDSKNSIYLQMNSLKTEDTAVYYCHYVHYASASTVLPAFGVDAWGQGTTVTVSS
VL: DIVMTQSPLSLPVTPGEPASISCQASQELVHMNRNTYLHWYQQKPGQAPRLLIYKVSNRFPGVPDRFSGSGSGTDFTLKISRVEAEDVGVYYCAQGTSVPFTFGQGTKLEIK
B14: H183/L072 VH N31R (antibody, name in Kabat numbering, V domains shown)
VH: QVQLVESGGGLVQPGRSLRLSCAASGFTFSRAWMHWVRQAPGKGLEWVAQIKDKGNAYAAYYAPSVKGRFTISRDDSKNSIYLQMNSLKTEDTAVYYCHYVHYASASTVLPAFGVDAWGQGTTVTVSS
VL: DIVMTQSPLSLPVTPGEPASISCQASQELVHMNRNTYLHWYQQKPGQAPRLLIYKVSNRFPGVPDRFSGSGSGTDFTLKISRVEAEDVGVYYCAQGTSVPFTFGQGTKLEIK
B15: H183/L072 VH H35K (antibody, name in Kabat numbering, V domains shown)
VH: QVQLVESGGGLVQPGRSLRLSCAASGFTFSNAWMKWVRQAPGKGLEWVAQIKDKGNAYAAYYAPSVKGRFTISRDDSKNSIYLQMNSLKTEDTAVYYCHYVHYASASTVLPAFGVDAWGQGTTVTVSS
VL: DIVMTQSPLSLPVTPGEPASISCQASQELVHMNRNTYLHWYQQKPGQAPRLLIYKVSNRFPGVPDRFSGSGSGTDFTLKISRVEAEDVGVYYCAQGTSVPFTFGQGTKLEIK
B16: H183/L072 VH M34R (antibody, name in Kabat numbering, V domains shown)
VH: QVQLVESGGGLVQPGRSLRLSCAASGFTFSNAWRHWVRQAPGKGLEWVAQIKDKGNAYAAYYAPSVKGRFTISRDDSKNSIYLQMNSLKTEDTAVYYCHYVHYASASTVLPAFGVDAWGQGTTVTVSS
VL: DIVMTQSPLSLPVTPGEPASISCQASQELVHMNRNTYLHWYQQKPGQAPRLLIYKVSNRFPGVPDRFSGSGSGTDFTLKISRVEAEDVGVYYCAQGTSVPFTFGQGTKLEIK
B17: H183/L072 VH H35R (antibody, name in Kabat numbering, V domains shown)
VH: QVQLVESGGGLVQPGRSLRLSCAASGFTFSNAWMRWVRQAPGKGLEWVAQIKDKGNAYAAYYAPSVKGRFTISRDDSKNSIYLQMNSLKTEDTAVYYCHYVHYASASTVLPAFGVDAWGQGTTVTVSS
VL: DIVMTQSPLSLPVTPGEPASISCQASQELVHMNRNTYLHWYQQKPGQAPRLLIYKVSNRFPGVPDRFSGSGSGTDFTLKISRVEAEDVGVYYCAQGTSVPFTFGQGTKLEIK
B18: H183/L072 VH K52F (antibody, name in Kabat numbering, V domains shown)
VH: QVQLVESGGGLVQPGRSLRLSCAASGFTFSNAWMHWVRQAPGKGLEWVAQIFDKGNAYAAYYAPSVKGRFTISRDDSKNSIYLQMNSLKTEDTAVYYCHYVHYASASTVLPAFGVDAWGQGTTVTVSS
VL: DIVMTQSPLSLPVTPGEPASISCQASQELVHMNRNTYLHWYQQKPGQAPRLLIYKVSNRFPGVPDRFSGSGSGTDFTLKISRVEAEDVGVYYCAQGTSVPFTFGQGTKLEIK
B19: H183/L072 VH N53R (antibody, name in Kabat numbering, V domains shown)
VH: QVQLVESGGGLVQPGRSLRLSCAASGFTFSNAWMHWVRQAPGKGLEWVAQIKDKGRAYAAYYAPSVKGRFTISRDDSKNSIYLQMNSLKTEDTAVYYCHYVHYASASTVLPAFGVDAWGQGTTVTVSS
VL: DIVMTQSPLSLPVTPGEPASISCQASQELVHMNRNTYLHWYQQKPGQAPRLLIYKVSNRFPGVPDRFSGSGSGTDFTLKISRVEAEDVGVYYCAQGTSVPFTFGQGTKLEIK
B20: H183/L072 VH M34K (antibody, name in Kabat numbering, V domains shown)
VH: QVQLVESGGGLVQPGRSLRLSCAASGFTFSNAWKHWVRQAPGKGLEWVAQIKDKGNAYAAYYAPSVKGRFTISRDDSKNSIYLQMNSLKTEDTAVYYCHYVHYASASTVLPAFGVDAWGQGTTVTVSS
VL: DIVMTQSPLSLPVTPGEPASISCQASQELVHMNRNTYLHWYQQKPGQAPRLLIYKVSNRFPGVPDRFSGSGSGTDFTLKISRVEAEDVGVYYCAQGTSVPFTFGQGTKLEIK

In this test the target is Human CD137 ECD (human). The test can be described thus: single mutant vs template dBBDu183H.
Human CD137 ECD (human), sequence (chain, as listed by the source limits assumed): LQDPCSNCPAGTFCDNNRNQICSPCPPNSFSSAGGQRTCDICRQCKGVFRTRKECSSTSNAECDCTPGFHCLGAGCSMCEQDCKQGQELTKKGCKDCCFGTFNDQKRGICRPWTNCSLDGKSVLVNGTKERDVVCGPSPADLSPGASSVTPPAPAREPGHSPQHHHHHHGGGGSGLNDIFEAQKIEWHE
B1: the fold change of affinity amounted to 0 fold. As to B2, the fold change of affinity came to 0 fold. The value for B3 was 0 fold. The value for B4 was 0 fold; that for B5 was 0 fold; that for B6 was 0 fold.

In the case of B7, the fold change of affinity came to 0 fold. Regarding B8, the fold change of affinity came to 0 fold.

With B9, the fold change of affinity worked out at 0 fold.

For B10, the fold change of affinity stood at 0 fold.

As to B11, the fold change of affinity is 0 fold. The value for B12 was 0 fold. The same measure for B13: 0 fold; for B14: 0 fold; for B15: 0 fold. The value for B16 was 0 fold; that for B17 was 0 fold; that for B18 was 0 fold. Take B19: the fold change of affinity was 0 fold.

Regarding B20, the fold change of affinity turned out to be 0 fold.
